In CN114790245A:

Target: 血浆激肽释放酶(plasma kallikrein,PK) (human) (UniProt P03952)
Experiment: cell-based or functional assay

UniProt P03952, sequence (P03952 20-638 limits assumed): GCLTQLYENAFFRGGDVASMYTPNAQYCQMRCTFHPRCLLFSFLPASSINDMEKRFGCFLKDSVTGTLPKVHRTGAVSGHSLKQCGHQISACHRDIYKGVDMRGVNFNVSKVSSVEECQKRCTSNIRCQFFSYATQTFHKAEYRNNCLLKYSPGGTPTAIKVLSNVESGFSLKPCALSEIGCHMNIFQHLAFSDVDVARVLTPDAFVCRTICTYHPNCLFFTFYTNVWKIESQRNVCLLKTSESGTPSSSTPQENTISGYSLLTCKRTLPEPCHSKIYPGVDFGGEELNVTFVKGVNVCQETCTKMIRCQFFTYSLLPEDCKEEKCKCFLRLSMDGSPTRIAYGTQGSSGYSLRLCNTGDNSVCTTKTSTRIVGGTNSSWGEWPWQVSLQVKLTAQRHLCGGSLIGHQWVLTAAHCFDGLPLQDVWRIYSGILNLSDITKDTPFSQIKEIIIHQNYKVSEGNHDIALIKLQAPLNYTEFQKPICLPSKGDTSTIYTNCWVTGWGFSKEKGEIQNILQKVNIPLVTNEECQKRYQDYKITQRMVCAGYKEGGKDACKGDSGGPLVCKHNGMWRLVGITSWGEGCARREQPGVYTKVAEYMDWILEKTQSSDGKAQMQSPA

MHL(Lanadelumab) (antibody)
IC50(nM), PK activity in human plasma activated with Factor XIIa (H-Pro-Phe-Arg-AMC): 1.17 nM | IC50(nM), PK enzyme activity on H-Pro-Phe-Arg-AMC (fluorescence): 0.99 nM
